± gives the standard deviation of the averaged measurements.
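Also: PSI is a weighted mean of sequencing reads over stability bins, variants kept only with over 10 reads, mCherry proximal and sfGFP distal, peptide attached via GGGS linker.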

This series deals with Saccharomyces cerevisiae. In words: protein stability index of tFT-peptide fusion (C-terminal peptide) (PSI (0-1 scale)); higher = more stable (slower turnover). The note with it: genetic background: wild type; temperature: 30 C.
In the case of KLKDRRKNTEEI, the protein stability index is 0.6961 ± 0.0033.
The sequence KLKKNKTREMET returned a protein stability index of 0.789 ± 0.018.
To KLNLKVRKRERP belongs 0.66971 ± 0.00065; to KLPRPPQRLRLP, 0.684 ± 0.066; to KLQKINKIKNEI, 0.685 ± 0.032.
The same measure for KLSIWRADKDLE: 0.688 ± 0.015; for KLSTGRGRTGYV: 0.698 ± 0.072; for KLVKWEGGYIVS: 0.61 ± 0.019.
To KMGRTEIWTIHL belongs 0.685 ± 0.053.
Take KMSEERIGIEKN: the protein stability index amounted to 0.7038 ± 0.0029.
KMYKRPNYQKTK showed a protein stability index of 0.64 ± 0.024.
To KNGQGQRKIPGK belongs 0.721 ± 0.023; to KNITIKKSKIKD, 0.61 ± 0.055.
As for KNKKNKCNKVKK, the protein stability index was determined as 0.726 ± 0.024.
In turn, KNKKYKNKQKQR registered a protein stability index of 0.714 ± 0.094.
KNKMGRKYTLPH came in with a protein stability index of 0.654 ± 0.081.
For KNKTKQKTRTET, the protein stability index came to 0.704 ± 0.013.
Sequence KNKTLNKIIRLP came in with a protein stability index of 0.717 ± 0.042.
KNKTTKKRKKRP displayed a protein stability index of 0.695 ± 0.057.
Sequence KNNITTTNKRMK displayed a protein stability index of 0.679 ± 0.0071.
As to KNRAEMREGIAL, the protein stability index was found to be 0.63 ± 0.018.
Turning to KNRENNTKIEIQ, the protein stability index stood at 0.661 ± 0.014.
For the sequence KPALPPITPNLC, the protein stability index came to 0.6727 ± 0.0036.
To KPQAGPSRHPPS belongs 0.759 ± 0.064; to KQGHNEIMTKGK, 0.6814 ± 0.0015.
In turn, KQIPLFILRPQT came in with a protein stability index of 0.704 ± 0.1.
KQKARRARGKEG had a protein stability index of 0.65 ± 0.024.
The sequence KQQCKTGRRRLV displayed a protein stability index of 0.716 ± 0.072.
To KQQRTKKKEKKR belongs 0.628 ± 0.097; to KQRSKKCRETYR, 0.729 ± 0.019.
KQRTMNKVSKEK had a protein stability index of 0.683 ± 0.045.
KQTICNTGPQWV displayed a protein stability index of 0.6267 ± 0.0022.
Take KREKGLKQIVRL: the protein stability index is 0.6827 ± 0.0029.
Sequence KRESETPKKHRK showed a protein stability index of 0.711 ± 0.068.
KRGRGPQFCDLY gave a protein stability index of 0.693 ± 0.045.
On to KRIQGEICVPGA, for which the protein stability index came out at 0.682 ± 0.041.
The sequence KRITRKRIKRRR showed a protein stability index of 0.7772 ± 0.0015.
KRKDKKKKYIRK showed a protein stability index of 0.759 ± 0.085.
To KRRKKKSKERER belongs 0.672 ± 0.015.
To KRRNKTNREDTM belongs 0.68 ± 0.052; to KRTKKKKKMELE, 0.719 ± 0.013.
Consider KRYRLRVKIGNT, for which the protein stability index amounted to 0.5291 ± 0.0046.
Turning to KSAPAIRASRPR, the protein stability index is 0.715 ± 0.0064.
KSEGKKHIDKKR registered a protein stability index of 0.63 ± 0.034.
As for KSEKKKKRKEKK, the protein stability index was found to be 0.718 ± 0.052.
With KSGLMFCIGDWC, the protein stability index is 0.7 ± 0.044.
The sequence KSKGVRITKVSN showed a protein stability index of 0.783 ± 0.02.
To KSKIKKKKQTKR belongs 0.652 ± 0.051; to KSRKEREKSDNQ, 0.678 ± 0.037.
KSSNIDINCNQN: the protein stability index came out at 0.691 ± 0.053.
Regarding KSVMVLRLLELK, the protein stability index is 0.636 ± 0.032.
Take KSVPLCSLGTTG: the protein stability index stood at 0.6726 ± 0.0036.
With KSVQEPTPRKYR, the protein stability index is 0.674 ± 0.026.
With KSVSIKGKFTSK, the protein stability index came out at 0.6494 ± 0.00087.
KTCGVGLDRMIG came in with a protein stability index of 0.714 ± 0.0099.
Regarding KTKKKQKQHRKQ, the protein stability index is 0.686 ± 0.033.
The sequence KTKVIFMYKKGQ registered a protein stability index of 0.675 ± 0.021.
In turn, KTMCNNLTKLQR registered a protein stability index of 0.622 ± 0.029.
Sequence KTNKKTIVKSQT returned a protein stability index of 0.674 ± 0.046.
Regarding KTQKYEIKNLKK, the protein stability index is 0.581 ± 0.082.
KTRQSNAPRRTF displayed a protein stability index of 0.707 ± 0.0091.
For KVGQWLRGKSKR, the protein stability index came out at 0.7171 ± 0.00075.
As for KVNKKKVITKQE, the protein stability index was 0.713 ± 0.027.
For KVQRINNKKERK, the protein stability index was found to be 0.677 ± 0.044.
KVWQISEVGAGY displayed a protein stability index of 0.617 ± 0.024.
To KYGTPFPPEVEM belongs 0.718 ± 0.034.
The sequence KYNKQRQTRIET had a protein stability index of 0.663 ± 0.019.
LAARHLNFPPIL gave a protein stability index of 0.711 ± 0.009.
The same measure for LACTGFPPPFPL: 0.675 ± 0.017; for LADFLGVSLLAV: 0.5695 ± 0.0031; for LAFSGAWGILPL: 0.682 ± 0.067.
LAHRASICLARL showed a protein stability index of 0.695 ± 0.063.
With LALEVSNLSCSV, the protein stability index amounted to 0.696 ± 0.022.
As for LALFDPAQRHAR, the protein stability index is 0.704 ± 0.052.
The sequence LALWNGVSMEEE displayed a protein stability index of 0.654 ± 0.039.
The sequence LALYISFGLSLI had a protein stability index of 0.526 ± 0.031.
In turn, LALYPYIPDSPF registered a protein stability index of 0.636 ± 0.048.
As for LAPPPPAPPMSP, the protein stability index is 0.717 ± 0.013.
LAPPVRECPFML displayed a protein stability index of 0.692 ± 0.072.
LAPSPPPPPLPL yielded a protein stability index of 0.677 ± 0.01.

Values taken from the supplement of paper PMC10724198.
